According to patent publication US20120219551A1:
Where “and” joins values, the source holds several entries; their conditions need not be identical. Equal values may be shown once.

What was measured:
[1] = target: FcγRIIIA on natural killer cells of human donor PBMC (human) (UniProt P08637); assay: cell-based or functional assay
[2] = target: soluble dimeric FcγRIIB-Fc fusion protein (extracellular domain of FcγRIIB fused to hinge-CH2-CH3 of human IgG2) (human) (UniProt P31994); assay: SPR (BIAcore), Fc mutant in ch4-4-20, off rate relative to wild type
Chain of soluble dimeric FcγRIIB-Fc fusion protein (extracellular domain of FcγRIIB fused to hinge-CH2-CH3 of human IgG2) (human) (P31994 43-217): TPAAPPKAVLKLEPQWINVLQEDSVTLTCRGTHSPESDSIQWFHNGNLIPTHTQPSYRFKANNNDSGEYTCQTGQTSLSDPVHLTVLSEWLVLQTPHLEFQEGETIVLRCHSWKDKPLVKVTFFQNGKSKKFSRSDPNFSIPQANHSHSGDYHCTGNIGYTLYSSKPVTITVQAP

[3] = target: FcγRIIIA (CD16A), F158 allotype (human) (UniProt P08637); assay: BIAcore
Chain of FcγRIIIA (CD16A), F158 allotype (human) (P08637 17-208 limits assumed): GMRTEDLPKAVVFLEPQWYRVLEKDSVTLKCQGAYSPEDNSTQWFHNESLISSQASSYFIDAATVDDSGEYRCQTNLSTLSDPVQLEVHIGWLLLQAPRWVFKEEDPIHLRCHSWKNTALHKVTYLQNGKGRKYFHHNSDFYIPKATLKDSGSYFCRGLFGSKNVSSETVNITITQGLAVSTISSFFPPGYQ

FcγRIIB (CD32B) (human) [4] = target: FcγRIIB (CD32B) (human) (UniProt P31994); assay: BIAcore
Chain of FcγRIIB (CD32B) (human) (P31994 43-217 limits assumed): as the sequence (P31994 43-217) above

[5] = target: FcγRIIA (CD32A), H131 allotype (human) (UniProt P12318); assay: BIAcore
Chain of FcγRIIA (CD32A), H131 allotype (human) (P12318 34-217 limits assumed): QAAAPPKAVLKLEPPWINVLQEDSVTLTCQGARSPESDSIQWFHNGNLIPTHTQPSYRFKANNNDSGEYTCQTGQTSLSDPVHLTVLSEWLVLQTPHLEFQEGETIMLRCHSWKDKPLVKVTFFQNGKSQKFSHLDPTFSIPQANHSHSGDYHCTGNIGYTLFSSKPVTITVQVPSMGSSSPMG

[6] = target: FcγRIIIA (CD16A), V158 allotype (human) (UniProt P08637); assay: BIAcore
Chain of FcγRIIIA (CD16A), V158 allotype (human) (P08637 17-208 F176V limits assumed): as the sequence (P08637 17-208 limits assumed) above, with F160V counted along it

[7] = target: FcγRIIIA (CD16A), F158 allotype (human) (UniProt P08637); assay: BIAcore (as Table 27)
FcγRIIB (CD32B) (human) [8] = target: FcγRIIB (CD32B) (human) (UniProt P31994); assay: BIAcore (as Table 27)
[9] = target: FcγRIIIA (CD16A), V158 allotype (human) (UniProt P08637); assay: BIAcore (as Table 27)
FcγRIIB (CD32B) (human) [10] = target: FcγRIIB (CD32B) (human) (UniProt P31994); assay: not stated; human FcRs
[11] = target: FcγRIIA (CD32A), H131 allotype (human) (UniProt P12318); assay: not stated; human FcRs
[12] = target: FcγRIIIA (CD16A), V158 allotype (human) (UniProt P08637); assay: not stated; human FcRs
[13] = target: FcγRIIIA (CD16A), F158 allotype (human) (UniProt P08637); assay: not stated; human FcRs

Chain of FcγRIIIA on natural killer cells of human donor PBMC (human) (P08637 17-254): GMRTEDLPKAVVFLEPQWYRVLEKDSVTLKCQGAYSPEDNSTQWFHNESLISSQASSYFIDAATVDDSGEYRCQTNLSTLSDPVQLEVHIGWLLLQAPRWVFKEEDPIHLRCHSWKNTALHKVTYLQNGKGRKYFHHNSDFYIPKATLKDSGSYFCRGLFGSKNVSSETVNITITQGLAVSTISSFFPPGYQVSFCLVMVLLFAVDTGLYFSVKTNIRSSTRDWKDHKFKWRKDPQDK

Row | Substance | Koff WT/Koff mutant [3] | Koff WT/Koff mutant (FcγRIIB (CD32B) (human) [4]) | Koff WT/Koff mutant [5] | Koff WT/Koff mutant [6] | Koff WT/Koff mutant [7] | Koff WT/Koff mutant (FcγRIIB (CD32B) (human) [8]) | Koff WT/Koff mutant [9] | also measured
1 | ch4-4-20 MgFc42 (D221E, D270E, V308A, Q311H, P396L, G402D) (antibody) | – | – | – | – | – | – | – | Relative rate of lysis (ADCC, vs wild type ch4-4-20) [1]: 3.17
2 | ch4-4-20 MgFc44 (K334N, P396L) (antibody) | – | – | – | – | – | – | – | Relative rate of lysis (ADCC, vs wild type ch4-4-20) [1]: 2.43
3 | ch4-4-20 MgFc46 (P217S, P396L) (antibody) | – | – | – | – | – | – | – | Relative rate of lysis (ADCC, vs wild type ch4-4-20) [1]: 2.04
4 | ch4-4-20 MgFc47 (K210M, P396L) (antibody) | – | – | – | – | – | – | – | Relative rate of lysis (ADCC, vs wild type ch4-4-20) [1]: 2.02
5 | ch4-4-20 MgFc48 (V379M, P396L) (antibody) | – | – | – | – | – | – | – | Relative rate of lysis (ADCC, vs wild type ch4-4-20) [1]: 2.01
6 | ch4-4-20 MgFc50 (P247S, P396L) (antibody) | – | – | – | – | – | – | – | Relative rate of lysis (ADCC, vs wild type ch4-4-20) [1]: 2.1
7 | ch4-4-20 MgFc51 (Q419H, P396L) (antibody) | – | – | – | – | – | – | – | Relative rate of lysis (ADCC, vs wild type ch4-4-20) [1]: 2.24
8 | ch4-4-20 MgFc52 (V240A, P396L) (antibody) | – | – | – | – | – | – | – | Relative rate of lysis (ADCC, vs wild type ch4-4-20) [1]: 2.35
9 | ch4-4-20 MgFc54 (F243L, V305I, A378D, F404S, P396L) (antibody) | – | – | – | – | – | – | – | Relative rate of lysis (ADCC, vs wild type ch4-4-20) [1]: 3.59
10 | ch4-4-20 MgFc55 (R255L, P396L) (antibody) | – | – | – | – | – | – | – | Relative rate of lysis (ADCC, vs wild type ch4-4-20) [1]: 2.79
11 | ch4-4-20 MgFc57 (L242F, P396L) (antibody) | – | – | – | – | – | – | – | Relative rate of lysis (ADCC, vs wild type ch4-4-20) [1]: 2.4
12 | ch4-4-20 MgFc59 (K370E, P396L) (antibody) | – | – | – | – | – | – | – | Relative rate of lysis (ADCC, vs wild type ch4-4-20) [1]: 2.47
13 | ch4-4-20 MgFc60 (P217S, P396L) (antibody) | – | – | – | – | – | – | – | Relative rate of lysis (ADCC, vs wild type ch4-4-20) [1]: 1.44
14 | ch4-4-20 MgFc61 (A330V) (antibody) | – | – | – | – | – | – | – | Koff WT/Mut [2]: 0.61
15 | ch4-4-20 MgFc62 (R292G) (antibody) | – | – | – | – | – | – | – | Koff WT/Mut [2]: 0.67
16 | ch4-4-20 MgFc63 (S298N, K360R, N361D) (antibody) | – | – | – | – | – | – | – | Koff WT/Mut [2]: 0.67
17 | ch4-4-20 MgFc64 (E233G) (antibody) | – | – | – | – | – | – | – | Koff WT/Mut [2]: 0.54
18 | ch4-4-20 MgFc65 (N276Y) (antibody) | – | – | – | – | – | – | – | Koff WT/Mut [2]: 0.64
19 | immunoglobulin with Fc variant D270E (antibody) | 1.48 | 0.39 | 2.24 | 1.25 | 1.48 | 0.39 | 1.25 | –
20 | immunoglobulin with Fc variant D270E, K392T, P396L (antibody) | – | – | – | – | – | – | – | fold change vs wild-type affinity (FcγRIIB (CD32B) (human) [10]): -0.3 fold; fold change vs wild-type affinity [11]: 0.9 fold; fold change vs wild-type affinity [12]: 0.8 fold
21 | immunoglobulin with Fc variant D270E, P396L (antibody) | 1.65 | 0.89 | 2.44 | 1.38 | 1.65 | 0.89 | 1.38 | –
22 | immunoglobulin with Fc variant D270E, P396L, Q419H (antibody) | – | 0.68 | 1.7 | 1.64 | – | 0.68 | 1.64 | –
23 | immunoglobulin with Fc variant F243I, R292P, Y300L, V305I, P396L (antibody) | 3.12 | 1.05 | 1.49 | – | 3.12 | 1.05 | – | –

Row | Substance | Koff WT/Koff mutant [3] | Koff WT/Koff mutant (FcγRIIB (CD32B) (human) [4]) | Koff WT/Koff mutant [5] | Koff WT/Koff mutant [6] | Koff WT/Koff mutant [7] | Koff WT/Koff mutant (FcγRIIB (CD32B) (human) [8]) | Koff WT/Koff mutant [9] | also measured
24 | immunoglobulin with Fc variant F243L, D270E, G316D, R416G (antibody) | 1.34 | 0.2 | 1.22 | 1.5 | 1.34 | 0.2 | 1.5 | –
25 | immunoglobulin with Fc variant F243L, D270E, K392T, P396L (antibody) | 2.44 | 0.44 | 1.7 | 3.16 | 2.44 | 0.44 | 3.16 | –
26 | immunoglobulin with Fc variant F243L, D270E, P396L, Q419H (antibody) | 1.15 | 0.26 | 1.11 | 1.46 | 1.15 | 0.26 | 1.46 | –
27 | immunoglobulin with Fc variant F243L, P247L, D270E, N421K (antibody) | 3.45 | 0.32 | 0.98 | 2.3 | 3.45 | 0.32 | 2.3 | –
28 | immunoglobulin with Fc variant F243L, P247L, N421K (antibody) | 1.71 | 0.17 | 0.39 | 1.89 | 1.71 | 0.17 | 1.89 | –
29 | immunoglobulin with Fc variant F243L, P396L (antibody) | 1.6 | 2.22 | 1.5 | 1.49 | 1.6 | 2.22 | 1.49 | –
30 | immunoglobulin with Fc variant F243L, R255L, D270E, P396L (antibody) | 1.64 | 0.38 | 1.44 | 1.75 | 1.64 | 0.38 | 1.75 | –
31 | immunoglobulin with Fc variant F243L, R292P, P396L (antibody) | – | – | – | – | – | – | – | fold change vs wild-type affinity [13]: 2.4 fold; fold change vs wild-type affinity (FcγRIIB (CD32B) (human) [10]): -1.6 fold; fold change vs wild-type affinity [11]: 0.4 fold; fold change vs wild-type affinity [12]: 5.3 fold
32 | immunoglobulin with Fc variant F243L, R292P, V305I, P396L (antibody) | – | – | – | – | – | – | – | fold change vs wild-type affinity (FcγRIIB (CD32B) (human) [10]): -1.6 fold; fold change vs wild-type affinity [11]: -0.3 fold; fold change vs wild-type affinity [12]: -3 fold
33 | immunoglobulin with Fc variant K392T, P396L (antibody) | 1.81 | 2.35 | 1.22 | 1.49 | 1.81 | 2.35 | 1.49 | –
34 | immunoglobulin with Fc variant P247L, D270E, N421K (antibody) | – | – | – | – | – | – | – | fold change vs wild-type affinity (FcγRIIB (CD32B) (human) [10]): -0.7 fold; fold change vs wild-type affinity [11]: 1 fold; fold change vs wild-type affinity [12]: 0.9 fold
35 | immunoglobulin with Fc variant P247L, D270E, Y300L, N421K (antibody) | 1.16 | 0.8 | 1.84 | 2.44 | – | – | – | –
36 | immunoglobulin with Fc variant P396L, Q419H (antibody) | 1.19 | 1.33 | 0.63 | 1.19 | 1.19 | 1.33 | 1.19 | –
37 | immunoglobulin with Fc variant R255L, D270E, P396L (antibody) | – | – | – | – | – | – | – | fold change vs wild-type affinity [13]: 0.7 fold; fold change vs wild-type affinity (FcγRIIB (CD32B) (human) [10]): -0.1 fold; fold change vs wild-type affinity [12]: 0.3 fold
38 | immunoglobulin with Fc variant R255L, D270E, R292G, P396L (antibody) | – | 0.65 | 1.05 | – | – | 0.65 | – | –
39 | immunoglobulin with Fc variant R255L, D270E, Y300L, P396L (antibody) | 1.74 | 0.87 | 2.6 | 1.52 | 1.74 | 0.87 | 1.52 | –
40 | immunoglobulin with Fc variant R255L, P396L (antibody) | 1.39 | 2.22 | 1.34 | 1.09 | 1.39 | 2.22 | 1.09 | –
41 | immunoglobulin with Fc variant R292G (antibody) | – | 0.25 | 0.14 | 1.54 | – | 0.25 | 1.54 | –
42 | immunoglobulin with Fc variant R292P (antibody) | – | – | – | – | – | – | – | fold change vs wild-type affinity [13]: 0.6 fold; fold change vs wild-type affinity (FcγRIIB (CD32B) (human) [10]): -2.7 fold; fold change vs wild-type affinity [11]: -0.5 fold
43 | immunoglobulin with Fc variant R292P, V305I (antibody) | 2.11 and 1.28 | – | 1.56 and 0.75 | 1.59 and 1.32 | 1.28 and 2.11 | – | 1.32 and 1.59 | –
44 | immunoglobulin with Fc variant R292P, V305I, P396L (antibody) | 1.9 | 0.92 | 1.5 | 1.85 | 1.9 | 0.92 | 1.85 | –
45 | immunoglobulin with Fc variant V284M, R292P, K370N (antibody) | 1.37 | 0.37 | 1.79 | 1.14 | 1.37 | 0.37 | 1.14 | –
